B1: Epstein-Barr nuclear antigen leader protein (Epstein-Barr virus (strain B95-8) (HHV-4)), Q8AZK7 (parent)
chain: MGDRSEGPGPTRPGPPGIGPEGPLGQLLRRHRSPSPTRGGQEPRRVRRRVLVQQEEEVVSGSPSGPRGDRSEGPGPTRPGPPGIGPEGPLGQLLRRHRSPSPTRGGQEPRRVRRRVLVQQEEEVVSGSPSGPRGDRSEGPGPTRPGPPGIGPEGPLGQLLRRHRSPSPTRGGQEPRRVRRRVLVQQEEEVVSGSPSGPRGDRSEGPGPTRPGPPGIGPEGPLGQLLRRHRSPSPTRGGQEPRRVRRRVLVQQEEEVVSGSPSGPRGDRSEGPGPTRPGPPGIGPEGPLGQLLRRHRSPSPTRGGQEPRRVRRRVLVQQEEEVVSGSPSGPRGDRSEGPGPTRPGPPGIGPEGPLGQLLRRHRSPSPTRGGQEPRRVRRRVLVQQEEEVVSGSPSGPRGDRSEGPGPTRPGPPGIGPEGPLGQLLRRHRSPSPTRGGQEPRRVRRRVLVQQEEEVVSGSPSGPLRPRPRPPARSLREWLLRIRDHFEPPTVTTQRQSVYIEEEEDED

In this assay the parent is B1. To be noted: with hdac4_human HDAC4, P56524.
Chain of hdac4_human HDAC4, P56524 (P56524 whole entry): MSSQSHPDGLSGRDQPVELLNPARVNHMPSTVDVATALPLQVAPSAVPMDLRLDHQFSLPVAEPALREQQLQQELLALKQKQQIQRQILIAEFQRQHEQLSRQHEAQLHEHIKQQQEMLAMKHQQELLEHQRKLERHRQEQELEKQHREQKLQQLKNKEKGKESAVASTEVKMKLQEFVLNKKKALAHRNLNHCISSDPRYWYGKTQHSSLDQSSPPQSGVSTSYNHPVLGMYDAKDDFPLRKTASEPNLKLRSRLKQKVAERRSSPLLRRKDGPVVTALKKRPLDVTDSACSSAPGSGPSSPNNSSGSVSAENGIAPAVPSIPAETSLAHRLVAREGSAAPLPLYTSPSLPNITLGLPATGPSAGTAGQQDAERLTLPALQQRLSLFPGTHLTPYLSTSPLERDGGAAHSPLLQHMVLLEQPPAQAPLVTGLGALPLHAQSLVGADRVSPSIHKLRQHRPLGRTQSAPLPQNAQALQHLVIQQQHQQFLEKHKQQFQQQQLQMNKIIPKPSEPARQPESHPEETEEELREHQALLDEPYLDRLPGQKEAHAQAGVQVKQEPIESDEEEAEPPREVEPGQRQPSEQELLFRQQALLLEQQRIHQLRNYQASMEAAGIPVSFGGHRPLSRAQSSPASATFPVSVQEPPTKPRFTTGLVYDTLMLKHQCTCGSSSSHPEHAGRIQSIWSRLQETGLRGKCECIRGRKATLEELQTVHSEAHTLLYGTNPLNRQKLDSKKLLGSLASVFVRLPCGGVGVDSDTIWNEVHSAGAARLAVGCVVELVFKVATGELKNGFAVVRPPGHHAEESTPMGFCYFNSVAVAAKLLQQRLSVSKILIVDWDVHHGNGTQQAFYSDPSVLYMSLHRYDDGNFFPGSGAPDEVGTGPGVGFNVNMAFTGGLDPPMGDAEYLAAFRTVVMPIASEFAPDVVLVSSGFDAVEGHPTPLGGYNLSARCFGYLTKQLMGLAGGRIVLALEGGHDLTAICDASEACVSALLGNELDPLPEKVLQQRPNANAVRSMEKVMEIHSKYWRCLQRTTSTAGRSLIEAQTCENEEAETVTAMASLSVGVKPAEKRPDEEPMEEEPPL
For MGDRSEGPGPTRPGPPGIGPEGPLGQLLRRHRAPAPTRGGQEPRRVRRRVLVQQEEEVVSGAPSGPRGDRSEGPGPTRPGPPGIGPEGPLGQLLRRHRSPSPTRGGQEPRRVRRRVLVQQEEEVVSGSPSGPRGDRSEGPGPTRPGPPGIGPEGPLGQLLRRHRSPSPTRGGQEPRRVRRRVLVQQEEEVVSGSPSGPRGDRSEGPGPTRPGPPGIGPEGPLGQLLRRHRSPSPTRGGQEPRRVRRRVLVQQEEEVVSGSPSGPRGDRSEGPGPTRPGPPGIGPEGPLGQLLRRHRSPSPTRGGQEPRRVRRRVLVQQEEEVVSGSPSGPRGDRSEGPGPTRPGPPGIGPEGPLGQLLRRHRSPSPTRGGQEPRRVRRRVLVQQEEEVVSGSPSGPRGDRSEGPGPTRPGPPGIGPEGPLGQLLRRHRSPSPTRGGQEPRRVRRRVLVQQEEEVVSGSPSGPLRPRPRPPARSLREWLLRIRDHFEPPTVTTQRQSVYIEEEEDED [S33A;S35A;S62A], the “effect of a mutation on the interaction” value was “decreasing interaction strength”.

Source of the values: IntAct's records for PubMed 17159145.
